Patent US20220002432A1 (VIRTUOSO BINCO, published 2022)

T1: Rhesus-ICAM1 (rhesus, UniProt Q5NKV6 28-480, limits assumed)
T1 sequence (looked up): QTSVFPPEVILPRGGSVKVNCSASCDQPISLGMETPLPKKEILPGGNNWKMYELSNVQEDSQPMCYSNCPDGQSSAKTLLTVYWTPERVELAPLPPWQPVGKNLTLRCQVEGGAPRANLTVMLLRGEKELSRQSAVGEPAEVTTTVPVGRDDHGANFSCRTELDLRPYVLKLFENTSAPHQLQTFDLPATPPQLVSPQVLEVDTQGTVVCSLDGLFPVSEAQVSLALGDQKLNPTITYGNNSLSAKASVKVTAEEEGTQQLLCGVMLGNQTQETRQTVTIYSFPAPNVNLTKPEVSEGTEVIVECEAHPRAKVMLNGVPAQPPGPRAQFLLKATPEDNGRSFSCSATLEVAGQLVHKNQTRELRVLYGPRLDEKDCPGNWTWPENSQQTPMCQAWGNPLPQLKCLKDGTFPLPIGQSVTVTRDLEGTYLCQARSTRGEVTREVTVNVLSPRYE


Columns and labels:
Rhesus-ICAM1 [1] = target: T1, Rhesus-ICAM1; assay: ELISA: plate coated with 1 ug/ml recombinant rhesus ICAM1 ECD, serially diluted antibody, OD450
Method: (§1) The plate was coated overnight at 4° C. with 1 μg/ml recombinant CD38 or ICAM1. After washing 3 times, the plate was blocked with 300 μl 1% BSA in PBST at 37° C. for 1 hour. Serially diluted antibodies were added and incubated at 37° C. for 1 hour. The plate was then washed 4 times with PBST and incubated with 1:5000 diluted 2nd antibody (Sigma, Cat #A0293) at 37° C. for 1 hour.

[2] = target: T2, ICAM1 on the surface of DU145 cells (human, UniProt P05362 28-532); assay: flow cytometry, DU145 cells;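 also: purified antibodies in dilution series bound to cells for 1 h at 4 °C, detected with a fluorescent secondary antibody (1 h, 4 °C, dark), read by flow cytometry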
T2 construct: whole, on cells
T2 sequence (P05362 28-532): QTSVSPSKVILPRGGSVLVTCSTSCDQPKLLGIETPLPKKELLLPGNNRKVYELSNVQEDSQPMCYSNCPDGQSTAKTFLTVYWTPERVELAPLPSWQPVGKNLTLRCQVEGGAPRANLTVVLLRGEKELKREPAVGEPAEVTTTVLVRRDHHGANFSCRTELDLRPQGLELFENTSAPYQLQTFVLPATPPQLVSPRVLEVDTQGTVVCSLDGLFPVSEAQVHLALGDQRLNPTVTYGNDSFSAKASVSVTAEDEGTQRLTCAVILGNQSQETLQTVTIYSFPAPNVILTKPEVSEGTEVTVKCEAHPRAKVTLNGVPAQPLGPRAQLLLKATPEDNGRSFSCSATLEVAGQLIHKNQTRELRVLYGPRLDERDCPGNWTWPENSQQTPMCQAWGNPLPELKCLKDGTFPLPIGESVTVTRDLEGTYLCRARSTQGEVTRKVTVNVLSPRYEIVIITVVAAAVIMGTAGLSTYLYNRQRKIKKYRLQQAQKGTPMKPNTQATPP
Method: (§2) Harvested cells were centrifuged at 2000 rpm for 5 min and resuspended with 10-15 ml ice-cold culture medium. Cells were counted and then 3×10⁶ cells were resuspended per mL of blocking buffer (PBS plus 2% FBS). 100 μl of the cell suspension was dispensed into each well of a 96-well plate and incubated at room temperature for 10-20 min. […] While incubating, purified antibodies were diluted to the desired dilution with blocking buffer. After a 10-20 minutes incubation, cells were centrifuged for 5 min at 2000 rmp in a refrigerated centrifuge. Blocking buffer was aspirated, and cells were resuspended in 100 μl/well diluted antibodies and incubated for 1 hour at 4° C. The cells were then washed 3 times with PBS plus 2% FBS. After the final wash, the cells were resuspended in 100 μl 1:500 diluted secondary antibody (Invitrogen, Cat #: A10631) and incubated for 1 hour at 4° C. in the dark. The cells were then washed 3 times with 200 μl PBS by centrifuging at 2000 rpm for 5 min. After the last wash, the cells were resuspended in 300 μl cold PBS and analyzed on a FACSVerse™ (BD Biosciences) flow cytometer.

recombinant human ICAM1 [3] = target: T3, recombinant human ICAM1 (human, UniProt P05362 28-480, limits assumed); assay: ELISA: plate coated with 1 ug/ml recombinant human ICAM1 ECD, serially diluted antibody, OD450
T3 sequence (P05362 28-480 limits assumed): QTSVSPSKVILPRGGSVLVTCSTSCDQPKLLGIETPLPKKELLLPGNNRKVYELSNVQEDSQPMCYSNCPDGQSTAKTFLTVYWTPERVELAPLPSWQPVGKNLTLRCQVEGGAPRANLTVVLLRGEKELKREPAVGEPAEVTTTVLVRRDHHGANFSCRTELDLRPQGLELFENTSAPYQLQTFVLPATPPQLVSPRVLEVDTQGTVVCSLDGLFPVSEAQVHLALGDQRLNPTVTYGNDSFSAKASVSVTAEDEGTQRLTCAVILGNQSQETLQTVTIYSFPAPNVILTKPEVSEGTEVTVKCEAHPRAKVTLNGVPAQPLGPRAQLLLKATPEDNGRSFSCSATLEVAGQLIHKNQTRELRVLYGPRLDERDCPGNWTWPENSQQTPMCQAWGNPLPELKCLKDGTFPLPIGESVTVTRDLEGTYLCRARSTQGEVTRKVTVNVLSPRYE
Method: as §1

recombinant human ICAM1 [4] = target: T3, recombinant human ICAM1; assay: SPR (Biacore 8K), antibody captured, antigen injected
Method: (§3) The binding kinetics of the anti-CD38 and anti-ICAM1 antibodies were evaluated on a Biacore 8K instrument (GE Healthcare). Biacore Series S CM5 sensor chips were immobilized with monoclonal mouse anti-human IgG (Fc) antibody (human antibody capture kit from GE Healthcare). Antibodies were captured on each flow cell. Serial 3-fold dilutions of each antigen were injected at a flow rate of 30 μl/min. Each sample was analyzed with 1 min association and 10 min dissociation at room temperature (25° C.). After each injection, the chip was regenerated using 3M MgCl₂. A 1:1 Langmuir model of simultaneous fitting of kₒₙ and koff was used for kinetics analysis.

Rhesus-ICAM1 [5] = target: T1, Rhesus-ICAM1; assay: as above
Method: as §3

cynomolgus CD38 ECD [6] = target: T4, cynomolgus CD38 ECD (cynomolgus, UniProt Q5VAN0 44-301, biotinylated on the AviTag during preparation); assay: ELISA: plate coated with 1 ug/ml recombinant cynomolgus CD38 ECD, serially diluted antibody, OD450
T4 construct: also called Cyno-CD38; Avi-Cyno CD38 ECD
Method: as §1

recombinant human CD38 = recombinant human CD38 (human, UniProt P28907 43-300, limits assumed); assay: SPR (Biacore 8K), antibody captured, antigen injected;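 also: antibodies held on a CM5 chip through anti-human IgG Fc, antigen in 3-fold serial dilutions, 1 min association then 10 min dissociation at 25 °C, 1:1 Langmuir global fit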
Method: as §3

cynomolgus CD38 ECD [7] = target: T4, cynomolgus CD38 ECD; assay: as above
Method: as §3

[8] = target: T5, CD38 on the surface of Daudi cells (human, UniProt P28907 1-300); assay: flow cytometry, Daudi cells;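 also: purified antibodies incubated with Daudi cells for 1 h at 4 °C, bound antibody detected by fluorescent secondary antibody and read by flow cytometry as MFI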
T5 construct: whole, on cells
Method: as §2

Binder	EC50 (read off the curve) (Rhesus-ICAM1 [1]) [nM]	EC50 [2] [nM]	Max Binding MFI [2] [MFI]	EC50 (read off the curve) (recombinant human ICAM1 [3]) [nM]	Kd (recombinant human ICAM1 [4]) [nM]	koff (recombinant human ICAM1 [4]) [s⁻¹]	kon (recombinant human ICAM1 [4]) [M⁻¹ s⁻¹]	Kd (Rhesus-ICAM1 [5]) [nM]	koff (Rhesus-ICAM1 [5]) [s⁻¹]	kon (Rhesus-ICAM1 [5]) [M⁻¹ s⁻¹]	EC50 (read off the curve) (cynomolgus CD38 ECD [6]) [nM]	Kd (recombinant human CD38) [nM]	koff (recombinant human CD38) [s⁻¹]	kon (recombinant human CD38) [M⁻¹ s⁻¹]	Kd (cynomolgus CD38 ECD [7]) [nM]	koff (cynomolgus CD38 ECD [7]) [s⁻¹]	kon (cynomolgus CD38 ECD [7]) [M⁻¹ s⁻¹]	EC50 [8] [nM]	Max Binding MFI [8] [MFI]
8E5 (antibody, human IgG1, kappa, V domains shown, Rabbit-human chimeric anti-ICAM1: rabbit VH and VL on human IgG1 and kappa constant regions) VH: QSLEESGGRLVTPGTPLTLTCTVSGFSLSNYAMNWVRQAPGKGLEWIGYISTRGSAYYASWAKGRFTISKTSTTVDLKMTSPTTEDTATYFCARGDLVGGGYIRGSFDPWGPGTLVTVSS VL: AQVLTQTPSPVSAAVGGTVTINCQSSQSVVSDKLLSWFQQKPGQPPKLLIYGASTLASGVPSRFKGSGSGTQFTLTISDVQSDDAATYYCAGAYSTDSDIRAFGGGTEVVVKR	~0.04	0.124	9190	~0.04	24.4	0.00361	148000	7.06	0.00189	268000									
20B5 (antibody, human IgG1, kappa, V domains shown, Rabbit-human chimeric anti-CD38: rabbit VH and VL on human IgG1 and kappa constant regions) VH: QSLEESGGDLVKPGASLTLTCTASGFSFSSRYWICWVRQAPGKGLEWIACIVAGTTNTYYASWAKGRFTISKTSSTTVTLQMTSLTAADTATYFCAGDPRTGSNVGYFNLWGPGTLVTVSS VL: AQVLTQTPSPVSAAVGGTVTINCQASQSVYNNNYLAWFQQKPGQPPKLLIYSASTLASGVPSRFKGSGSGTQFTLTISEVQSDDAATYYCQAYYSGGIYAFGGGTEVVVKR											~0.06	98.5	0.0341	346000	54.8	0.0322	588000	0.373	816
3D8 (antibody, human IgG1, kappa, V domains shown, Rabbit-human chimeric anti-ICAM1: rabbit VH and VL on human IgG1 and kappa constant regions) VH: QSLEESGGDLVKPGASLTLTCTASGFSFSSSYWMCWVRQAPGKGLEWIACIDGGSAGYNYYATWAKGRFTISKTSSTTVTLQMTSLTAADRATYFCARGPGSSYNLWGPGTLVTVSS VL: DIVMTQTPASVEAAVGGTVTIKCQASQSISSYLSWYQQKPGQPPKLLIYRASTLASGVPSRFKGSGSGTEFTLTISDLESADAATYYCQSYVFGSSRSYDNAFGGGTEVVVKR	~0.04	0.208	6430	~0.04	16.8	0.00909	540000	17.3	0.0348	2.01e+06									
5B12 (antibody, human IgG1, kappa, V domains shown, Rabbit-human chimeric anti-ICAM1: rabbit VH and VL on human IgG1 and kappa constant regions) VH: QSLEESGGRLVTPGTPLTLTCTVSGFSLSSYGMSWVRQAPGKGLEYIGWISFSGSAYYANWAKGRFTISKTSTTVDLKITSPTTEDTATYFCARGGDYGGSTYILNLWGPGTLVTVSS VL: AFELTQTPSSVEAAVGGTVTIKCQASESIDSYLSWYQQKPGQPPKLLIYAASTLASGVSSRFKGSGSGTEFTLTISDLESADAATYYCQSYSGTITTSGGAFGGGTEVVVKR	~0.04	0.113	5940	~0.04	2.74	0.000584	213000	8.2	0.00218	266000									
10B8 (antibody, human IgG1, kappa, V domains shown, Rabbit-human chimeric anti-ICAM1: rabbit VH and VL on human IgG1 and kappa constant regions) VH: QSLEESGGRLVTPGGSLTLTCTVSGFSLSSYGMSWVRQAPGKGLEYIGWISFSGSAYYANWAKGRFTISKTSTTVDLKITSPTTEDTATYFCARGGDYGGSTYILNLWGPGTLVTVSS VL: AFELTQTPSSVEAAVGGTVTIKCQASESINSYLSWYQQKPGQPPKLLIYAASTLASGVSSRFKGSGSGTEFTLTISDLESADAATYYCQSYSGTISTSGGAFGGGTEVVVKR	~0.04	0.251	6220	~0.04	3.32	0.000682	206000	8.27	0.00245	296000									
8B12 (antibody, human IgG1, kappa, V domains shown, Rabbit-human chimeric anti-ICAM1: rabbit VH and VL on human IgG1 and kappa constant regions) VH: QSVEESGGGLVKPGGTLTLTCTVSGFSLSTHAMGWVRQAPGKGLEYIGIIGSSDRTYYASWAKGRFTISKTSTTVDLKITSPTTEDTATYFCVRDPYDSFDDGYRLWGPGTLVTVSS VL: AYDMTQTPASVEVAVGGTVTIKCQASQSIYSYLSWYQQKPGQRPKFLIYDASKVASGVPSRFKGSGSGTEFTLTISAVQSDDAATYYCQQAYSSSNVDNAFGGGTEVMVKR	~0.04	1.02	3750	~0.04	0.26	0.000115	442000	0.88	0.000658	746000									
6G8 (antibody, human IgG1, kappa, V domains shown, Rabbit-human chimeric anti-ICAM1: rabbit VH and VL on human IgG1 and kappa constant regions) VH: QSVEESGGGLVKPGGTLTLTCTVSGFSLSSYAMGWVRQAPGKGLEYIGIIGSSGSTYYATWAKGRFTISKTSTTVDLKITSPTTEDTATYFCVRDPYDSYDAAYRLWGPGTLVTVSS VL: AYDMSQTPASVEVAVGGTVTIKCQASQSIYSYLSWYQQKPGQRPKLLIYDASKLASGVPSRFTGSGSGTEFTLTISGVQSDDAATYYCQQAYSSSNVDNVFGGGTEVVVKR	~0.04	2.23	4190	~0.04	1.7	0.000533	314000	0.85	0.00126	1.47e+06									
22H6 (antibody, human IgG1, kappa, V domains shown, Rabbit-human chimeric anti-CD38: rabbit VH and VL on human IgG1 and kappa constant regions) VH: QSVEESGGRLVTPGTPLTLTCTVSGFSLSNNAISWVRQAPGKGLQWIGSIYGSGNTYYATWAKGRFTVSKTSTTVDLKINSPTTEDTATYFCAREGAGSSWGFNLWGPGTLVTVSS VL: AQVLTQTASSVSAAVGGTVTISCQSSESVYKNNYLSWYQQKPGQPLKCLIYSASTLASGVPSRFKGSGSGTQFTLTISDLESDDAATYYCAGGYSGNINGFGGGTEVVVKR											~0.06	65.4	0.021	321000	62.4	0.0352	564000	1.32	782

Second part, the binder after the results:

EC50 (read off the curve) (Rhesus-ICAM1 [1]) [nM]	EC50 [2] [nM]	Max Binding MFI [2] [MFI]	EC50 (read off the curve) (recombinant human ICAM1 [3]) [nM]	Kd (recombinant human ICAM1 [4]) [nM]	koff (recombinant human ICAM1 [4]) [s⁻¹]	kon (recombinant human ICAM1 [4]) [M⁻¹ s⁻¹]	Kd (Rhesus-ICAM1 [5]) [nM]	koff (Rhesus-ICAM1 [5]) [s⁻¹]	kon (Rhesus-ICAM1 [5]) [M⁻¹ s⁻¹]	EC50 (read off the curve) (cynomolgus CD38 ECD [6]) [nM]	Kd (recombinant human CD38) [nM]	koff (recombinant human CD38) [s⁻¹]	kon (recombinant human CD38) [M⁻¹ s⁻¹]	Kd (cynomolgus CD38 ECD [7]) [nM]	koff (cynomolgus CD38 ECD [7]) [s⁻¹]	kon (cynomolgus CD38 ECD [7]) [M⁻¹ s⁻¹]	EC50 [8] [nM]	Max Binding MFI [8] [MFI]	Binder
										~0.06	510	0.102	200000	43.8	0.0313	715000	4.06	577	26D4 (antibody, human IgG1, kappa, V domains shown, Rabbit-human chimeric anti-CD38: rabbit VH and VL on human IgG1 and kappa constant regions) VH: QEQLEESGGDLVKPEGSLTLTCTASGFSFSNDAICWVRQAPGKGLEWIACIYAGSGNTYYASWAKGRFSISKTSSTTVTLQMTSLTVADTATYFCASADTIDYFNLWGPGTLVTVSS VL: AQVLTQTPSPVSAAVGGTVTINCQASQSVYNNNYLAWYQQKPGQPPKLLIYRASNLASGVPSRFSASGSGTQFTLTISEVQSDDAATYYCQAYYRDPTTAFGGGTEVVVKR
~0.04	6.01	2940	~0.04	2.85	0.00027	94800	3.2	0.000596	186000										14B3 (antibody, human IgG1, kappa, V domains shown, Rabbit-human chimeric anti-ICAM1: rabbit VH and VL on human IgG1 and kappa constant regions) VH: QSLEESGGDLVKPGASLTLTCTASGFSSSSGYYICWVRQAPGKGLEWIACIGAGSGAAYYASWAKGRFTMSKTSSTTVTLQMTSLTAADTATYFCARGGFVVGGGYGGYCFNLWGPGTLVTVSS VL: AQVLTQTASSVSATVGGTVTISCQSSESVDVNNLAWYQQKPGQPPKLLIYSASTLASGVPSRFKGSGSGTQFTLTVSDLESADAATYYCAGGYSGNIFAFGGGTAVVVKR
~0.04	1.45	3700	~0.04	0.57	0.000134	237000	0.54	0.000277	517000										16E4 (antibody, human IgG1, kappa, V domains shown, Rabbit-human chimeric anti-ICAM1: rabbit VH and VL on human IgG1 and kappa constant regions) VH: QSVEESGGRLVTPGTPLTLTCTVSGFSLSSHAMGWVRQAPGKGLQYIGIIGSSGSTYYASWAKGRFTISKTSTTVDLRLTSPTTEDTATYFCVRDPYDSFGDAYRLWGPGTLVTVSS VL: AYDMTQTPASVEVAVGGTVTIKCQASQSIYSYCSWYQQKPGQRPKFLIYDASKLASGVPSRFKGSGSGTEFTLTISGMQSDDAATYYCQQAYSSSNVDNAFGGGTEVVVKR
~0.04	1.59	3980	~0.04	0.65	0.000149	227000	1.17	0.000387	330000										2E3 (antibody, human IgG1, kappa, V domains shown, Rabbit-human chimeric anti-ICAM1: rabbit VH and VL on human IgG1 and kappa constant regions) VH: QSVEESGGGLVKPGGTLTLTCTVSGFSLSSYAMGWVRQAPGKGLEYIGIIGSSGSTYYASWAKGRFTISKTSTTVDLKITSPTTEDTATYFCVRDPYDSFGDGYRLWGPGTLVTVSS VL: AYDMTQTPASVEVAVGGTVTIKCQASENIYRYLLWYQQKLGQRPSLLIYDASKLASGVPSRFKGSGSGTEFTLTISGVQSDDAATYYCQQAYSSSNVDNAFGGGTEVVVKR
